# Assay results published in the DeepSol protein solubility set.
# Test: soluble on expression in E. coli; label from the status in PepcDB or PDB records
row,Sequence,soluble on expression in E. coli
1,MGSDKIHHHHHHMTSQLNELVEFLHSPQPAVRQIAIDNLVGFSAGPTSKVFKNDSYRPIKDIIKMIMDPEHGTRVIIQQGVTILVNLSEDKLVRNIILSDDKKFLKFLVWKIVDLTNPNADIMCILLSNLAKDDGILAVLNIKRNSSGEEVDDGLKLAALNKEVFKSLRAMDCLMDCFVKGYDKKLTKYASFNYLAFFFADISRFKLGRMYFIEEQEYDGVVPISKLLVFTEKYDAKVRREGVASTIKNSLFDSETHERLLKDEKINLLPYILLPIASAKDSEIDEEDMFNLPDELQLLPEDKERDPIPAIICCHLESILLLCTTHAGREYLRDKSVYPLVRELHKNVENEDIGELCYRIVNMLMRGEPGAGAVEEMPSKNAEEEEEEESEEEEDDDEEDEIVEVA,not soluble
2,MSLETAGQIIGGETAAVLIRQKAGEPIELGDLLVAEGEGYTILQVKDLRYSSQIPQGMRELASGFNLEGYGREVELLEPELRNYIIAEARPILHVRDGQPMIPKRLPRFFREVRRIREGDLDFLERPGNPVFLGNVRSGSKVLDTPVYVDAVDAITHHILIPATTGRGKSNLVKVMLWSLAEMDRVGILVLDPHDEYYGRNEAGLGRHPSDNVVYYSPDAPVGGNTLTINLRSLRPEHFEGIIPFTQAQEQAIARYYNEYGDGWILKIVEGEELPGVQPVTLNVLRRIFDVILGVHLDDGKIKSRGGVFRERGGESTIKDIAASLEDGKNRCGGHLKAHGRGEGHHHHHH,not soluble
3,GPGSMAAAEGGQRSDEQVRAAALSWLRMTPVEKRVYEEEAQSWQTRLETLSTAPPSAHDLGEGSSSAAALPDALPSAEQPLPQQQHSSHLVAQRSSPKATAERLPRSKSSFVLFRAHMKGRRKMCMRELCAVWRNMSAEEKAPYDAAAASKRTEQFLSQTPSAPGSQS,soluble
4,MNLFYNPKYVGDVAFLQIEPVEGELNYNKKGNVVEITNEGNVVGYNIFEISKDITIEEKGHIKLTDELVNVFQKRISEAGFDYKLNADLSPKFVVGYVETKDKHPDADKLSVLNVNVGNDTLQIVCGAPNVEAGQKVVVAKVGAVMPSGMVIKDAELRGVASSGMICSMKELNLPNAPEEKGIMVLNDSYEIGQAFFELEHHHHHH,soluble
5,MGSSHHHHHHHHDYDIPTTENLYFQGSELSSLTAVSPVDGRYGDKVSALRGIFSEYGLLKFRVQVEVRWLQKLAAHAAIKEVPAFAADAIGYLDAIVANFSEEDAARIKTIERTTNHDVKAVEYFLKEKVAEIPELHAVSEFIHFACTSEDINNLSHALMLKTARDEVILPYWRQLIDGIKDLAVQYRDIPLLSRTHGQPATPSTIGKEMANVAYRMERQYRQLNQVEILGKINGAVGNYNAHIAAYPEVDWHQFSEEFVTSLGIQWNPYTTQIEPHDYIAELFDCVARFNTILIDFDRDVWGYIALNHFKQKTIAGEIGSSTMPHKVNPIDFENSEGNLGLSNAVLQHLASKLPVSRWQRDLTDSTVLRNLGVGIGYALIAYQSTLKGVSKLEVNRDHLLDELDHNWEVLAEPIQTVMRRYGIEKPYEKLKELTRGKRVDAEGMKQFIDGLALPEEEKARLKAMTPANYIGRAITMVDELK,soluble
6,MNSTQSRRVGLYGTGRAAAQLVGAIEASPHTLTTAIVFFDEQAGQDIGTLTGGRATGITATTDLEGAIRSGDFDVLAYAGLKGEVLHRAMELCADSGVDLVHACFVHPRVKLDPEMYSRLQKRAEETGARIVGTGMLPGFWLDVLPALLSSALPAPVSIIGESRSDITAWGRGVLADEMGLGTLADGQPGPVGGVLHESAEMIADILGLTGYESKVYGGYVTAHAATEVAGIQISPGDRVGFDEAATVVHDGRERVRIAWKGLPKGSFEGYERSLTVTAIGGDGSECTLSITPALDPYPGTAARIVHAVGALGALPGGQHTPVQLGI,not soluble
7,MPYLNADRGKSGGYHIGHTLLWSSGKSRLEAIRYHVETSALEKIMFARLLSSERDEYSSEETEHRFDEGLQIYGYSPEDVSKARNKMAGFLAGWRHAVSVRRASMEQSADTEQ,soluble
8,TVAEPKAINATQPLLLDAVRGKEVERPPVWLMRQAGRYMKSYQLLCEKYPLFRDRSENVDLVVEISLQPWKVFRPDGVILFSDILTPLSGMNIPFDIIKGKGPVIFDPLRTAADVEKVREFIPEKSVPYVGEALTILRKEVNNQAAVLGFVGAPFTLASYVVEGGSSKNFTKIKRLAFAEPKVLHALLQKFATSMAKYIRYQADSGAQAVQIFDSWATELSPVDFEEFSLPYLKQIVDSVKLTHPNLPLILYASGSGGLLERLPLTGVDVVSLDWTVDMADGRRRLGPNVAIQGNVDPGVLFGSKEFITNRINDTVKKAGKGKHILNLGHGIKVGTPEENFAHFFEIAKGLRY,soluble
9,MGSDKIHHHHHHMFLVISVVGSSNIDIVLKVDHFTKPGETQKAIEMNVFPGGKGANQAVTVAKIGEKGCRFVTCIGNDDYSDLLIENYEKLGITGYIRVSLPTGRAFIEVDKTGQNRIIIFPGANAELKKELIDWNTLSESDILLLQNEIPFETTLECAKRFNGIVIFDPAPAQGINEEIFQYLDYLTPNEKEIEALSKDFFGEFLTVEKAAEKFLELGVKNVIVKLGDKGVLLVNKNEKKHFPTFKVKAVDTTAAGDVFNGAFAVALSEGKNPEEAVIFGTAAAAISVTRLGAQSSIPAREEVEAFLKNL,soluble
10,AYKVTLKTPDGDITFDVEPGERLIDIGSEKADLPLSCQAGACSTCLGKIVSGTVDQSEGSFLDDEQIEQGYVLTCIAIPESDVVIETHKEDEL,soluble
11,MSLVMDYEGFKKEIFKLTGIDLGSYKEKQMKRRLDSLISKNNFSGYKTYIEALKTDKKLFNEFINYMTINVSEFYRNPEQWEKLKNIILPSLLEKNSNPKIWSAACSSGDEPYTLVMILNEFLPLNKIKIIATDIDAEILVKAKNGLYTEKSIANLPKKYVEKYFKVDGDVYAINQEVKNCVEFSKHNLLADPYPKNCDLIVCRNVLIYFTEEAKAEIYKKFNRALKTGGVLFVGSTEQIILYNLYNFKPIQTFFYQKEKEGHHHHHH,soluble
12,MAHHHHHHMGTVSPARRVASPGKGKRSPSRGETPSEGRTRRAGSSPSSRPGMQTASQRAARKKEVRRLRDAELLLDEAPLSMVGERAQDALEAMLRALDIRRNASATPKKMQPVWHHVKALVVTANREGLRRAYAAFPAEEGHYFFGKALSTLEYSASTVNTAADGGEFAECPLLLSHLMEATLNNIAFQQYIAHEPPEAILKTLQRALKVQHHQAFRTLTLYNMAVAFLAARRYEDATEFVARCSQVAEVCLELEVSLTREISSLYKEYHTMVATHAIMCHHLLAGLAAWSGESDMEVYHAQLALCCATKFLCRG,not soluble
13,MGSDKIHHHHHHKTTTAVQLADTFAFMRQKKVLVLDLDPQTNATLALVGEERWEQADERGQTLAHLFLDLLNGTRNFNPERAIVRGASNLNTIPPEVFDQLPESAQYGRVDVLPSSIRLIDVQDRMQDIANRTNYSLSPMAVVQKYIGPLFGRYDYVLIDCPPNLGFITQNGLEVSDHYLIPTIPDRMSTYGIPQIAGKIDELRRDRDLKIRCLGVVVTKFQSNSSQHKQGLEHLPEYLRSAFAYTNEDTPPILNTVMPQTNASAEAMLFERDVRNYPVKYGSGAVAGQAAYKYGLDLAAEVQALLGDEDEA,not soluble
14,MIDCLVMAGGQGARMGFREKPLLSVCGQPMLLRVLSALRMACRRIAIVYSRHTPGVKRLCLSGALGAVECIEGPGSYVKDLRLGFSHISTPLLVAPADMPFLNPHHLNLFIDRALADGASIVNLSLRGRGLTGLSVFKHHRGWWRDVETNGCWALDVDTWEDFRRAGELCGGECTGEGLRLELLEHHHHHH,not soluble
